From PMC10591298

The substances below were run against Lys119 (UniProt position 119, IPVLRKDFVVQ) (assay: kinetics). Settings: 25 °C; 100 mM NaCl in MTEN buffer (said to have minimal change in ionic strength with pH); Steady-state turnover with CdRP (60 µM) above KM; enzyme 0.25-60 µM depending on variant.

| Substance | pKa |
| --- | --- |
| Indole-3-glycerol phosphate synthase (MtIGPS), wild type (Mycobacterium tuberculosis) | 9.0 ± 0.1 |
| MtIGPS Glu57Asp (Mycobacterium tuberculosis; E57D) | 7.7 ± 0.1 |
| MtIGPS Glu219Asp (Mycobacterium tuberculosis; E219D) | 7.6 ± 0.2 |
| MtIGPS Glu219Gln (Mycobacterium tuberculosis; E219Q) | 9.9 ± 0.1 |
| MtIGPS Glu219Asn (Mycobacterium tuberculosis; E219N) | 10.0 ± 0.2 |
